“Also recorded” adds a separate entry of the source.
B1: Trichoderma reesei Cel7A (TrCel7A): endoglycosidase H (protein)
parent chain: MYRKLAVISAFLATARAQSACTLQSETHPPLTWQKCSSGGTCTQQTGSVVIDANWRWTHATNSSTNCYDGNTWSSTLCPDNETCAKNCCLDGAAYASTYGVTTSGNSLSIGFVTQSAQKNVGARLYLMASDTTYQEFTLLGNEFSFDVDVSQLPCGLNGALYFVSMDADGGVSKYPTNTAGAKYGTGYCDSQCPRDLKFINGQANVEGWEPSSNNANTGIGGHGSCCSEMDIWEANSISEALTPHPCTTVGQEICEGDGCGGTYSDNRYGGTCDPDGCDWNPYRLGNTSFYGPGSSFTLDTTKKLTVVTQFETSGAINRYYVQNGVTFQQPNAELGSYSGNELNDDYCTAEEAEFGGSSFSDKGGLTQFKKATSGGMVLVMSLWDDYYANMLWLDSTYPTNETSSTPGAVRGSCSTSSGVPAQVESQSPNAKVTFSNIKFGPIGSTGNPSGGNPPGGNRGTTTTRRPATTTGSSPGPTQSHYGQCGGIGYSGPTVCASGTTCQVLNPYYSQCL
B2: Trichoderma reesei Cel7A (TrCel7A): N270QAo (protein)
parent chain: B1 parent chain
B3: Trichoderma reesei Cel7A (TrCel7A): ΔN-glycTr (protein)
parent chain: B1 parent chain
B4: Trichoderma reesei Cel7A (TrCel7A): ΔN-glycAo (protein)
parent chain: B1 parent chain
B5: Trichoderma reesei Cel7A (TrCel7A): N45QAo (protein)
parent chain: B1 parent chain
B6: Trichoderma reesei Cel7A (TrCel7A): N384QAo (protein)
parent chain: B1 parent chain

Assays:
[1] = invMM kinetics, 12 g/L Avicel; details: glycan lost; control: untreated TrCel7A CD (no linker, no CBM)
DSC = details: glycan lost
[2] = pNP-Lac activity after 1 h at Tm−5 °C; details: glycan lost
[3] = convMM kinetics, 50 °C, 1 h, reducing ends; details: glycan lost; control: WTAo
[4] = invMM kinetics (enzyme excess), 50 °C, 1 h; details: glycan lost; control: WTAo

| Protein | stability_or_folding, Tm (DSC; control: WTAo) | stability_or_folding, other: residual activity ([2]; control: WTAo) | enzymatic_activity, other: convVmax/E0 (kcat) [3] | other results |
| --- | --- | --- | --- | --- |
| B1 | – | – | – | enzymatic_activity [1]: increases |
| B2 | decreases, 66.9 vs 67.9 | no change, 60 ± 3 vs 57 ± 1 | – | – |
| B3 | – | – | – | stability_or_folding, Tm (DSC; control: WTTr): decreases, 65.2 vs 67.9; stability_or_folding, other: residual activity ([2]; control: WTTr): no change, 44 ± 1 vs 45 ± 2 |
| B4 | decreases, 65.0 vs 67.9 | decreases, 41 ± 2 vs 57 ± 1 | – | – |
| B5 | decreases, 67.4 vs 67.9 | decreases, 38 ± 2 vs 57 ± 1 | no change, 1.33 ± 0.09 vs 1.46 ± 0.14 | enzymatic_activity, other: invVmax/S0 [4]: increases, 0.52 ± 0.02 vs 0.45 ± 0.02 |
| B6 | decreases, 66.1 vs 67.9 | no change, 57 ± 3 vs 57 ± 1 | decreases, 0.34 ± 0.01 vs 0.48 ± 0.02; also recorded: decreases, 1.01 ± 0.03 vs 1.46 ± 0.14 | – |

From PMC7412794
